The values that follow come from patent publication US8329653 (BUCK INSTITUTE FOR AGE RESEARCH, dated 2012).

Test [1] concerns the target T1, endogenous mouse netrin-1 (E16.5 embryonic cortex) (mouse, UniProt O09118 25-604).
T1 construct: also called mNet1
Put plainly: co-immunoprecipitation of endogenous proteins from E16.5 mouse cortex.

Test [2] has as its target T2, Human Net 1-FlagM2 (Apotech), recombinant netrin-1 (human, UniProt O95631 25-604).
T2 construct: also called recombinant netrin-1 (Apotech Corp.); not shown: FlagM2 tag
Description: ELISA, Aβ1-17 coated at 0.07 µg/ml, various netrin-1 concentrations. As for the experimental part:
An anti-mouse antibody coupled to HRP (Jackson ImmunoResearch, Inc) was added at a concentration of 0.8 μg/ml for 1 hour at 37° C. Colorimetric intensity was measured at a wavelength of 490 nm using a Victor station (Wallac).
In general terms: ELISA stands for enzyme-linked immunosorbent assay.

The target in test [3] is T3, endogenous mouse APP (embryonic cortex) (mouse, UniProt P12023 18-770).
T3 construct: whole, on cells; also called endogenous APP
Description: co-immunoprecipitation of endogenous proteins from E16.5 mouse cortex.

A word on the Kd: it is the concentration at which binding is half-saturated.

B1: endogenous mouse TrkC (E16.5 embryonic cortex) (receptor)
chain: not shown
notes: whole, on cells
For B1, the binding result in test [1] is given as “no binding”.

B2: endogenous mouse p75^ntr (E16.5 embryonic cortex) (receptor, UniProt Q9Z0W1 32-427, looked up)
chain: KETCSTGMYTHSGECCKACNLGEGVAQPCGANQTVCEPCLDSVTFSDVVSATEPCKPCTECLGLQSMSAPCVEADDAVCRCSYGYYQDEETGRCEACSVCGVGSGLVFSCQDKQNTVCEECPEGTYSDEANHVDPCLPCTVCEDTERQLRECTPWADAECEEIPGRWITRSTPPEGSDVTTPSTQEPEAPPERDLIASTVADTVTTVMGSSQPVVTRGTADNLIPVYCSILAAVVVGLVAYIAFKRWNSCKQNKQGANSRPVNQTPPPEGEKLHSDSGISVDSQSLHDQQTHTQTASGQALKGDGNLYSSLPLTKREEVEKLLNGDTWRHLAGELGYQPEHIDSFTHEACPVRALLASWGAQDSATLDALLAALRRIQRADIVESLCSESTATSPV
notes: whole, on cells; also called P75-NGFR
Regarding B2, the binding result in test [1] is given as “no binding”.

B3: Aβ1-17 (the 17 first amino acids of Aβ) (peptide, UniProt P05067 672-688, looked up)
peptide: DAEFRHDSGYEVHHQKL
notes: domain: Aβ1-17
Take B3: the Kd in test [2] was 30 nM.

B4: endogenous mouse bFGF (E16.5 embryonic cortex) (ligand, UniProt P15655 10-154, looked up)
chain: PALPEDGGAAFPPGHFKDPKRLYCKNGGFFLRIHPDGRVDGVREKSDPHVKLQLQAEERGVVSIKGVCANRYLAMKEDGRLLASKCVTEECFFFERLESNNYNTYRSRKYSSWYVALKRTGQYKLGSKTGPGQKAILFLPMSAKS
For the molecule B4, the binding result in test [3] is on record as “no binding”.
